T1: SIP2 D1 (Plasmodium falciparum, UniProt C6KSN9 177-235)
T1 sequence: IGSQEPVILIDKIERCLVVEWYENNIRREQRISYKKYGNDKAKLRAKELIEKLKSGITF

B1: GTGCAC_site10484 (dsDNA)
DNA 1: AAATTTGCTTTACCAGTGCAAAAAAAAAAAAAAAAA
DNA 2: TTTTTTTTTTTTTTTTTGCACTGGTAAAGCAAATTT
B2: GTGCAC_site10175 (dsDNA)
DNA 1: ACTTTTTTGAACAACGTGCACGTATTCATAACAAAA
DNA 2: TTTTGTTATGAATACGTGCACGTTGTTCAAAAAAGT
B3: GTGCAC_site9794 (dsDNA)
DNA 1: AAAAATATATATTCAGTGCATATAACAAAAATTATA
DNA 2: TATAATTTTTGTTATATGCACTGAATATATATTTTT
B4: GTGCAC_site10359 (dsDNA)
DNA 1: TACACTTGTAATTGCGTGCACGAAGGATATATATAT
DNA 2: ATATATATATCCTTCGTGCACGCAATTACAAGTGTA
B5: GTGCAC_site10774 (dsDNA)
DNA 1: ACGTTAAAATATTGGGTGCTAACACAATAAAAATAA
DNA 2: TTATTTTTATTGTGTTAGCACCCAATATTTTAACGT
B6: GTGCAC_site10711 (dsDNA)
DNA 1: TAATAAAATATGTACGTGCACATAATTATACTAAAA
DNA 2: TTTTAGTATAATTATGTGCACGTACATATTTTATTA
B7: GTGCAC_site10531 (dsDNA)
DNA 1: AGTAATTATTTTAGAGTGCATAGTTTTTTAATAAAT
DNA 2: ATTTATTAAAAAACTATGCACTCTAAAATAATTACT
B8: GTGCAC_site10446 (dsDNA)
DNA 1: ATGTATCCAATAGGAGTGCATAATTCTATTAACACC
DNA 2: GGTGTTAATAGAATTATGCACTCCTATTGGATACAT
B9: GTGCAC_site9718 (dsDNA)
DNA 1: TCTTTTTGCATGTGTGTGCGCACAAAATACACAAAA
DNA 2: TTTTGTGTATTTTGTGCGCACACACATGCAAAAAGA
B10: GTGCAC_site10192 (dsDNA)
DNA 1: ATATTATTATATATAGTGCATATTATTATTTTTATT
DNA 2: AATAAAAATAATAATATGCACTATATATAATAATAT
B11: GTGCAC_site9982 (dsDNA)
DNA 1: ATTGTTATTTATTGTGTGCGCATTAATACATACATA
DNA 2: TATGTATGTATTAATGCGCACACAATAAATAACAAT
B12: GTGCAC_site9975 (dsDNA)
DNA 1: TGATTCACTATAGTAGTGCATATTATATATATATAT
DNA 2: ATATATATATATAATATGCACTACTATAGTGAATCA
B13: GTGCAC_site9663 (dsDNA)
DNA 1: AAATAGTAAGAGATGGTGCGTTTCCTTTTTTTTTTT
DNA 2: AAAAAAAAAAAGGAAACGCACCATCTCTTACTATTT
B14: GTGCAC_site9453 (dsDNA)
DNA 1: TGTTTTATTTTATTAGTGCATTTTTATTTATAATAG
DNA 2: CTATTATAAATAAAAATGCACTAATAAAATAAAACA
B15: GTGCAC_site10455 (dsDNA)
DNA 1: AATATTCAATATAAAGTGCATTATTGTGGACCTAAT
DNA 2: ATTAGGTCCACAATAATGCACTTTATATTGAATATT
B16: GTGCAC_site10335 (dsDNA)
DNA 1: ATCAAGCGCAATGTGGTGCGTAAATTTTGTATTATA
DNA 2: TATAATACAAAATTTACGCACCACATTGCGCTTGAT
B17: GTGCAC_site9588 (dsDNA)
DNA 1: AAAAAAAAAAATTCGGTGCAATGTAATTAATGTAAA
DNA 2: TTTACATTAATTACATTGCACCGAATTTTTTTTTTT
B18: GTGCAC_site9653 (dsDNA)
DNA 1: GTGTACTTTTAAATAGTGCATTTTACAATAATAAAA
DNA 2: TTTTATTATTGTAAAATGCACTATTTAAAAGTACAC
B19: GTGCAC_site10234 (dsDNA)
DNA 1: TAAAACAAAAAAAAGATGCACTATTTATTTTATTAT
DNA 2: ATAATAAAATAAATAGTGCATCTTTTTTTTGTTTTA
B20: GTGCAC_site10256 (dsDNA)
DNA 1: AAGGAATGCATATAGGTGCTACACATAAAAATAAAA
DNA 2: TTTTATTTTTATGTGTAGCACCTATATGCATTCCTT
B21: GTGCAC_negctrl_site176 (dsDNA)
DNA 1: TTTAATTAATAATAATATAAATTGTTCTTTTTTTTT
DNA 2: AAAAAAAAAGAACAATTTATATTATTATTAATTAAA
B22: GTGCAC_negctrl_site504 (dsDNA)
DNA 1: TTTCAAGGATTTAATTTATGGAAACCTTCTTCATTT
DNA 2: AAATGAAGAAGGTTTCCATAAATTAAATCCTTGAAA
B23: GTGCAC_negctrl_site205 (dsDNA)
DNA 1: TATAATTATTTTTTTCTAAATATTATAAGGTATTCA
DNA 2: TGAATACCTTATAATATTTAGAAAAAAATAATTATA
B24: GTGCAC_negctrl_site410 (dsDNA)
DNA 1: TTATCTTAATTGTGATTATAAAGATATTCTTTCTAT
DNA 2: ATAGAAAGAATATCTTTATAATCACAATTAAGATAA
B25: GTGCAC_negctrl_site530 (dsDNA)
DNA 1: AATATATCAAAAATGATGACATAAATATATTAATTT
DNA 2: AAATTAATATATTTATGTCATCATTTTTGATATATT
B26: GTGCAC_negctrl_site419 (dsDNA)
DNA 1: GAAGGAAAAGATACGATAAAATAAGATATTAATTTA
DNA 2: TAAATTAATATCTTATTTTATCGTATCTTTTCCTTC
B27: GTGCAC_negctrl_site453 (dsDNA)
DNA 1: AATAGGAAGACTATTTTGTATTTGATTTTTTATTCC
DNA 2: GGAATAAAAAATCAAATACAAAATAGTCTTCCTATT
B28: GTGCAC_negctrl_site525 (dsDNA)
DNA 1: TTTCTAAGAAAAAAAAAAAAAAAAAAAAAGATACAA
DNA 2: TTGTATCTTTTTTTTTTTTTTTTTTTTTCTTAGAAA
B29: GTGCAC_negctrl_site629 (dsDNA)
DNA 1: TTGTTTTCTTTTTCTTTTCTTTTTCTTTTTTCTTTT
DNA 2: AAAAGAAAAAAGAAAAAGAAAAGAAAAAGAAAACAA
B30: GTGCAC_negctrl_site471 (dsDNA)
DNA 1: GATTATCTATCGCTTGAATGAAATGAAATCATGCAA
DNA 2: TTGCATGATTTCATTTCATTCAAGCGATAGATAATC
B31: GTGCAC_negctrl_site401 (dsDNA)
DNA 1: AAAAAAATTAAAAATAAAGAAAAAAAAAAAAAAAAA
DNA 2: TTTTTTTTTTTTTTTTTCTTTATTTTTAATTTTTTT
B32: GTGCAC_negctrl_site386 (dsDNA)
DNA 1: AAGATAAACTTTTTTAATTAATTTAATTTTTTTTTT
DNA 2: AAAAAAAAAATTAAATTAATTAAAAAAGTTTATCTT
B33: GTGCAC_negctrl_site373 (dsDNA)
DNA 1: AATAAATTAAATAAAAATGTTTAACATAAAATATGA
DNA 2: TCATATTTTATGTTAAACATTTTTATTTAATTTATT
B34: GTGCAC_negctrl_site536 (dsDNA)
DNA 1: TGAAAAAATATAAAATATAAAATAAAAAATATAAAA
DNA 2: TTTTATATTTTTTATTTTATATTTTATATTTTTTCA
B35: GTGCAC_negctrl_site53 (dsDNA)
DNA 1: TGAAAAATTACAAAAATAATAAAATGAAATAATAAA
DNA 2: TTTATTATTTCATTTTATTATTTTTGTAATTTTTCA
B36: GTGCAC_negctrl_site79 (dsDNA)
DNA 1: TTTTAAAAAAGAAAAAAAAAGGATCAGAGAAATATT
DNA 2: AATATTTCTCTGATCCTTTTTTTTTCTTTTTTAAAA
B37: GTGCAC_negctrl_site389 (dsDNA)
DNA 1: TATTATAAATTAATTTTAAACTTTATTATTATGATA
DNA 2: TATCATAATAATAAAGTTTAAAATTAATTTATAATA
B38: GTGCAC_negctrl_site187 (dsDNA)
DNA 1: AGGAAACAAGAAATGAAGAATCATGTAGAAGGCCCA
DNA 2: TGGGCCTTCTACATGATTCTTCATTTCTTGTTTCCT
B39: GTGCAC_negctrl_site559 (dsDNA)
DNA 1: TTTTTTATTGTGAAACTGATATTATATTTTTTATAA
DNA 2: TTATAAAAAATATAATATCAGTTTCACAATAAAAAA
B40: GTGCAC_negctrl_site69 (dsDNA)
DNA 1: AACAGATAATATAAAAAAAAAAAAAAAAATAATTAA
DNA 2: TTAATTATTTTTTTTTTTTTTTTTATATTATCTGTT
B41: GTGCAC_negctrl_site60 (dsDNA)
DNA 1: AACACAATAAAAATTAAAAATGTTAAGTAAATATAA
DNA 2: TTATATTTACTTAACATTTTTAATTTTTATTGTGTT
B42: GTGCAC_negctrl_site363 (dsDNA)
DNA 1: ATTAGAGAATCGTAACCCAAATGAACATACTTAAAT
DNA 2: ATTTAAGTATGTTCATTTGGGTTACGATTCTCTAAT
B43: GTGCAC_negctrl_site233 (dsDNA)
DNA 1: TAAACCTTAAAATATTTCTCATGTTTAACTTATATT
DNA 2: AATATAAGTTAAACATGAGAAATATTTTAAGGTTTA
B44: GTGCAC_negctrl_site547 (dsDNA)
DNA 1: TTTTACAATAATAAGTAGATCTAAATAAAGATTTAA
DNA 2: TTAAATCTTTATTTAGATCTACTTATTATTGTAAAA

Target: T1, SIP2 D1
Assay: gcPBM; about 25 ug protein; PBS, 1% milk, 0.2 mg/ml BSA, salmon testes DNA, 0.03% Triton X-100
Details: tags: N-terminal GST (pGEX-4T-1), kept; label: surface-attached array probe

Binder	binding signal
B1	8.74 ln median PBM intensity, better of two orientations
B2	8.77 ln median PBM intensity, better of two orientations
B3	8.79 ln median PBM intensity, better of two orientations
B4	8.81 ln median PBM intensity, better of two orientations
B5	8.87 ln median PBM intensity, better of two orientations
B6	8.95 ln median PBM intensity, better of two orientations
B7	8.98 ln median PBM intensity, better of two orientations
B8	9.02 ln median PBM intensity, better of two orientations
B9	9.06 ln median PBM intensity, better of two orientations
B10	9.16 ln median PBM intensity, better of two orientations
B11	9.22 ln median PBM intensity, better of two orientations
B12	9.26 ln median PBM intensity, better of two orientations
B13	9.3 ln median PBM intensity, better of two orientations
B14	9.34 ln median PBM intensity, better of two orientations
B15	9.41 ln median PBM intensity, better of two orientations
B16	9.46 ln median PBM intensity, better of two orientations
B17	9.5 ln median PBM intensity, better of two orientations
B18	9.56 ln median PBM intensity, better of two orientations
B19	9.6 ln median PBM intensity, better of two orientations
B20	9.67 ln median PBM intensity, better of two orientations
B21	6.5 ln median PBM intensity, better of two orientations
B22	6.53 ln median PBM intensity, better of two orientations

Binder	binding signal
B23	6.55 ln median PBM intensity, better of two orientations
B24	6.56 ln median PBM intensity, better of two orientations
B25	6.58 ln median PBM intensity, better of two orientations
B26	6.61 ln median PBM intensity, better of two orientations
B27	6.62 ln median PBM intensity, better of two orientations
B28	6.64 ln median PBM intensity, better of two orientations
B29	6.64 ln median PBM intensity, better of two orientations
B30	6.65 ln median PBM intensity, better of two orientations
B31	6.66 ln median PBM intensity, better of two orientations
B32	6.66 ln median PBM intensity, better of two orientations
B33	6.67 ln median PBM intensity, better of two orientations
B34	6.67 ln median PBM intensity, better of two orientations
B35	6.68 ln median PBM intensity, better of two orientations
B36	6.69 ln median PBM intensity, better of two orientations
B37	6.7 ln median PBM intensity, better of two orientations
B38	6.71 ln median PBM intensity, better of two orientations
B39	6.71 ln median PBM intensity, better of two orientations
B40	6.71 ln median PBM intensity, better of two orientations
B41	6.71 ln median PBM intensity, better of two orientations
B42	6.72 ln median PBM intensity, better of two orientations
B43	6.73 ln median PBM intensity, better of two orientations
B44	6.73 ln median PBM intensity, better of two orientations

From PMC11417369, “DNA sequence and chromatin differentiate sequence-specific transcription factor binding in the human malaria parasite Plasmodium falciparum”
